39 variants from the RNAGym collection of RNA variant scans (doi:10.7554/elife.90254) can be followed below.

B1: LINE1-full (parent)
chain: UACGUAGGUGGUUUUCCCCUGAUAGUGCUAAGGGGGCCUGGAAGUUUGGACUGGGCAGAGCUCAACACAGCGUGGCAAAGUGGCUGUGGCUAGACUGCCUCUCUGGAUUCCUCGUCACUCAGCAGGGCAUCUCUGAGAGAAAUGCC

The data set covers variants of B1. As to the kind of experiment: self-cleavage, relative activity (ratio to wild type); higher = more cleavage; in vitro, sequencing; the parent is a self-cleaving ribozyme.
Consider UACGUAGGUGGUUUUCCCCUGAUAGUGCUAAGGGGGCCUGGAAGUUUGGACUGGGCAAAGCUCAACACAGUGUGGCAAAGUGGCUGUGGCUAGACUGCCUCUCUGGAUUCCUCGUCACUCAGCAGGGCAUCUCUGAGAGAAAUGCC, for which the self-cleavage turned out to be 0.03.

As for UACGUAGGUGGUUUUCCCCUGAUAGUGCUAAGGGGGCCUGGAAGUUUGGACUGGGCAAAGCUCAACACAGCGUGGCAAAGUGGCUGUGGCUAGACUGCCUCUCUGGAUUCCUCGUCACUCAGCAGGGCAUCUCUGAGAGAAAUACC, the self-cleavage came out at 0.04.

For the variant UACGUAGGUGGUUUUCCCCUGAUAGUGCUAAGGGGGCCUGGAAGUUUGGACUGGGCAUAGCUCAACACAGCGUGGCAAAGUGGCUGUGGCUAGACUGCCGCUCUGGAUUCCUCGUCACUCAGCAGGGCAUCUCUGAGAGAAAUGCC, the self-cleavage is 0.2.

UACGUAGGUGGUUUUCCCCUGAUAGUGCUAAGGGGGCCUGGAAGUUUGGACUGGGCAUAGCUCAACACAGCGUGGCAAAGUGGCUGUGGCUAGACUGCCCCUCUGGAUUCCUCGUCACUCAGCAGGGCAUCUCUGAGAGAAAUGCC: the self-cleavage was found to be 0.09.

On to UACGUAGGUGGUUUUCCCCUGAUAGUGCUAAGGGGGCCUGGAAGUUUGGACUGGGCACAGCUCAACACAGCUUGGCAAAGUGGCUGUGGCUAGACUGCCUCUCUGGAUUCCUCGUCACUCAGCAGGGCAUCUCUGAGAGAAAUGCC, for which the self-cleavage came to 0.02.

Turning to UACGUAGGUGGUUUUCCCCUGAUAGUGCUAAGGGGGCCUGGAAGUUUGGACUGGGCAAAGCCCAACACAGCGUGGCAAAGUGGCUGUGGCUAGACUGCCUCUCUGGAUUCCUCGUCACUCAGCAGGGCAUCUCUGAGAGAAAUGCC, the self-cleavage worked out at 0.08.

UACGUAGGUGGUUUUCCCCUGAUAGUGCUAAGGGGGCCUGGAAGUUUGGACUGGGCAUAGCUCAACACAGCGUGGCAAAGUGGCUGUGGCUAGACUGCCUCUCUGGAUUCCUCGUCACUCAGCAGGGCAUCCCUGAGAGAAAUGCC: the self-cleavage is 0.01.

In the case of UACGUAGGUGGUUUUCCCCUGAUAGUGCUAAGGGGGCCUGGAAGUUUGGACUGGGCUGAGCUCAACACAGCGUGGCAAAGUGGCUGUGGCUAGACUGCCUCUCUGGAUUCCUCGUCACCCAGCAGGGCAUCUCUGAGAGAAAUGCC, the self-cleavage turned out to be 0.06.

Take UACGUAGGUGGUUUUCCCCUGAUAGUGCUAAGGGGGCCUGGAAGUUUGGACUGGGCAAAGCUCAACACAGCGUGGCAAAGUGGCUGUGGCUAGACUGCCUCUCAGGAUUCCUCGUCACUCAGCAGGGCAUCUCUGAGAGAAAUGCC: the self-cleavage was 0.03.

Regarding UACGUAGGUGGUUUUCCCCUGAUAGUGCUAAGGGGGCCUGGAAGUUUGGACUGGGCAUAGCUCAACACAGCGUGGCAAAGUGGCUGUGGCUAGACUGCCUCUCUGGAUUCCUCGUCACUCAGCCGGGCAUCUCUGAGAGAAAUGCC, the self-cleavage was 0.03.

On to UACGUAGGUGGUUUUCCCCUGAUAGUGCUAAGGGGGCCUGGAAGUUUGGACUGGGCAUAGCUCAACACAGCGUGGCAAAGUGGCUGUGGCUAGACUGCCUCUCUGGAUUCCUCGUCACUCAGCGGGGCAUCUCUGAGAGAAAUGCC, for which the self-cleavage stood at 0.01.

Turning to UACGUAGGUGGUUUUCCCCUGAUAGUGCUAAGGGGGCCUGGAAGUUUGGACUGGGCAUAGCUCAACACAGCGUGGCAAAGUGGCUGUGGCUAGACUGCCUCUCUGGAUUCCUCGUCACUCAGCAGGGCAUCUCUGAGAGGAAUGCC, the self-cleavage worked out at 0.05.

As to UACGUAGGUGGUUUUCCCCUGAUAGUGCUAAGGGGGCCUGGAAGUUUGGACUGGGCAUAGCUCAACACGGCGUGGCAAAGUGGCUGUGGCUAGACUGCCUCUCUGGAUUCCUCGUCACUCAGCAGGGCAUCUCUGAGAGAAAUGCC, the self-cleavage came out at 0.07.

Consider UACGUAGGUGGUUUUCCCCUGAUAGUGCUAAGGGGGCCUGGAAGUUUGGACUGGGCAAAGCUCAACACAGCGUGGCAAAGUGGCUGUGGCUAGACUGCCUCUCUGGAUUCCUCGUCACCCAGCAGGGCAUCUCUGAGAGAAAUGCC, for which the self-cleavage stood at 0.06.

In the case of UACGUAGGUGGUUUUCCCCUGAUAGUGCUAAGGGGGCCUGGAAGUUUGGACUGGGCAAAGCUCGACACAGCGUGGCAAAGUGGCUGUGGCUAGACUGCCUCUCUGGAUUCCUCGUCACUCAGCAGGGCAUCUCUGAGAGAAAUGCC, the self-cleavage came to 0.03.

Turning to UACGUAGGUGGUUUUCCCCUGAUAGUGCUAAGGGGGCCUGGAAGUUUGGACUGGGCUGAGCUCAACACAGCGUGGCAAAGUGGCUGUGGCUAGACUGCCUCUCUGGAUUCCUCGUCACUCAGCAGGGCAUCUCAGAGAGAAAUGCC, the self-cleavage was 0.1.

UACGUAGGUGGUUUUCCCCUGAUAGUGCUAAGGGGGCCUGGAAGUUUGGACUGGGCAUAGCACAACACAGCGUGGCAAAGUGGCUGUGGCUAGACUGCCUCUCUGGAUUCCUCGUCACUCAGCAGGGCAUCUCUGAGAGAAAUGCC: the self-cleavage is 0.02.

For the variant UACGUAGGUGGUUUUCCCCUGAUAGUGCUAAGGGGGCCUGGAAGUUUGGACUGGGCAUAGCCCAACACAGCGUGGCAAAGUGGCUGUGGCUAGACUGCCUCUCUGGAUUCCUCGUCACUCAGCAGGGCAUCUCUGAGAGAAAUGCC, the self-cleavage stood at 0.

For UACGUAGGUGGUUUUCCCCUGAUAGUGCUAAGGGGGCCUGGAAGUUUGGACUGGGCAAAGCUCAACACAGCGUGGCGAAGUGGCUGUGGCUAGACUGCCUCUCUGGAUUCCUCGUCACUCAGCAGGGCAUCUCUGAGAGAAAUGCC, the self-cleavage was determined as 0.06.

In the case of UACGUAGGUGGUUUUCCCCUGAUAGUGCUAAGGGGGCCUGGAAGUUUGGACUGGGCAAAGCUCAACACAGCGUGGCAAAGCGGCUGUGGCUAGACUGCCUCUCUGGAUUCCUCGUCACUCAGCAGGGCAUCUCUGAGAGAAAUGCC, the self-cleavage was 0.05.

UACGUAGGUGGUUUUCCCCUGAUAGUGCUAAGGGGGCCUGGAAGUUUGGACUGGGCUGAGCUCAACACAGCGUGGCAAAGUGGCUGUGGCUAGACUGCCUCUCUGGACUCCUCGUCACUCAGCAGGGCAUCUCUGAGAGAAAUGCC: the self-cleavage turned out to be 0.17.

As to UACGUAGGUGGUUUUCCCCUGAUAGUGCUAAGGGGGCCUGGAAGUUUGGACUGGGCAUAGCUCUACACAGCGUGGCAAAGUGGCUGUGGCUAGACUGCCUCUCUGGAUUCCUCGUCACUCAGCAGGGCAUCUCUGAGAGAAAUGCC, the self-cleavage was determined as 0.05.

For UACGUAGGUGGUUUUCCCCUGAUAGUGCUAAGGGGGCCUGGAAGUUUGGACUGGGCAUAGCUCAACACAGUGUGGCAAAGUGGCUGUGGCUAGACUGCCUCUCUGGAUUCCUCGUCACUCAGCAGGGCAUCUCUGAGAGAAAUGCC, the self-cleavage worked out at 0.04.

As to UACGUAGGUGGUUUUCCCCUGAUAGUGCUAAGGGGGCCUGGAAGUUUGGACUGGGCAAAGCUCAACACAGCGUGGCAAAGUGGCUGUGGCUAGACUGCCUCUCUGGAUUCCUCGUCACUCAGCAGGGCAUCUCUGAGAGAAGUGCC, the self-cleavage is 0.

Turning to UACGUAGGUGGUUUUCCCCUGAUAGUGCUAAGGGGGCCUGGAAGUUUGGACUGGGCAUAGCUCAACACAGCGUGGCAGAGUGGCUGUGGCUAGACUGCCUCUCUGGAUUCCUCGUCACUCAGCAGGGCAUCUCUGAGAGAAAUGCC, the self-cleavage came to 0.03.

As for UACGUAGGUGGUUUUCCCCUGAUAGUGCUAAGGGGGCCUGGAAGUUUGGACUGGGCAAAGCUCAACACAGCGUGGCAAAGUGGCUGUGGCUAGACUGCCUCUCUGGAUUCCUCGUCACUCGGCAGGGCAUCUCUGAGAGAAAUGCC, the self-cleavage worked out at 0.13.

On to UACGUAGGUGGUUUUCCCCUGAUAGUGCUAAGGGGGCCUGGAAGUUUGGACUGGGCAAAGCUCAACACAGCGUGGCAAAGUGGCUGUGGCUAGACUGCCUCUCUGGAUUCCUCGUCACUCAGCAGGGCAUCUCCGAGAGAAAUGCC, for which the self-cleavage came out at 0.01.

As to UACGUAGGUGGUUUUCCCCUGAUAGUGCUAAGGGGGCCUGGAAGUUUGGACUGGGCUGAGCUCAACACAGCGUGGCAAAGUGGCUGUGGCUAGACUGCCUCUCUGGAUUCCUCGUCACUCAGCAGGGCAUCUCUGAGAGAAACGCC, the self-cleavage turned out to be 0.14.

As for UACGUAGGUGGUUUUCCCCUGAUAGUGCUAAGGGGGCCUGGAAGUUUGGACUGGGCAUAGCUCAACACAGCGUGGCAAAGUGGCUGUGGCUAGACUGCCUCUCUGGAUUCCUCGUCACUCAGCAGGGCAUCUCUGGGAGAAAUGCC, the self-cleavage worked out at 0.01.

With UACGUAGGUGGUUUUCCCCUGAUAGUGCUAAGGGGGCCUGGAAGUUUGGACUGGGCAUAGCUCAACACAGCGUGGCAAAGCGGCUGUGGCUAGACUGCCUCUCUGGAUUCCUCGUCACUCAGCAGGGCAUCUCUGAGAGAAAUGCC, the self-cleavage worked out at 0.05.

As for UACGUAGGUGGUUUUCCCCUGAUAGUGCUAAGGGGGCCUGGAAGUUUGGACUGGGCUGAGCUCAACACAGCGUGGCAAAGUGGCUGUGGCUAGACUGCCUCUCUGGAUUCCUCGCCACUCAGCAGGGCAUCUCUGAGAGAAAUGCC, the self-cleavage worked out at 0.18.

As for UACGUAGGUGGUUUUCCCCUGAUAGUGCUAAGGGGGCCUGGAAGUUUGGACUGGGCAAAGCUCAACACAGCGCGGCAAAGUGGCUGUGGCUAGACUGCCUCUCUGGAUUCCUCGUCACUCAGCAGGGCAUCUCUGAGAGAAAUGCC, the self-cleavage stood at 0.04.

As to UACGUAGGUGGUUUUCCCCUGAUAGUGCUAAGGGGGCCUGGAAGUUUGGACUGGGCAAAGCUCAACACAGCGUGGCAAAGUGGCUGUGGCUAGACUGCCUCUCUGGAUUCCUCGUCACUCAGCAGGGCAUCUCUGAGAGGAAUGCC, the self-cleavage came to 0.04.

As for UACGUAGGUGGUUUUCCCCUGAUAGUGCUAAGGGGGCCUGGAAGUUUGGACUGGGCAAAGCUCAACACAGCGUGGCAAAGUGGCUGUGGCUAGGCUGCCUCUCUGGAUUCCUCGUCACUCAGCAGGGCAUCUCUGAGAGAAAUGCC, the self-cleavage was determined as 0.

For UACGUAGGUGGUUUUCCCCUGAUAGUGCUAAGGGGGCCUGGAAGUUUGGACUGGGCAUAGCUCAACACAGCGUGGCAAAGUGGCUGUGGCUAGACUGCCUCUCUGGAUUCCUCGUCACUCAGCAGGGCAUCUCUGAGAGAAGUGCC, the self-cleavage is 0.03.

In the case of UACGUAGGUGGUUUUCCCCUGAUAGUGCUAAGGGGGCCUGGAAGUUUGGACUGGGCAUAGCUCAACACAGCGUGGCAAAGUGGCUGCGGCUAGACUGCCUCUCUGGAUUCCUCGUCACUCAGCAGGGCAUCUCUGAGAGAAAUGCC, the self-cleavage turned out to be 0.03.

Consider UACGUAGGUGGUUUUCCCCUGAUAGUGCUAAGGGGGCCUGGAAGUUUGGACUGGGCAAAGCUCAACACAGCGUGGCAAAGUGGCUGUGGCUAGACUGCCUCUCUGGAUACCUCGUCACUCAGCAGGGCAUCUCUGAGAGAAAUGCC, for which the self-cleavage turned out to be 0.04.

UACGUAGGUGGUUUUCCCCUGAUAGUGCUAAGGGGGCCUGGAAGUUUGGACUGGGCACAGCUCAACACAGCGUGGCAAAGUGGCUGUGGCUAGACUGCCUCUCUGGAUUCCUCGUCACUCAGCUGGGCAUCUCUGAGAGAAAUGCC: the self-cleavage amounted to 0.03.

Regarding UACGUAGGUGGUUUUCCCCUGAUAGUGCUAAGGGGGCCUGGAAGUUUGGACUGGGCUGAGCUCAACACAGCGUGGCAAAGUGGCUGUGGCUAGACUGCCUCUCUGGAUUCCUCGUCACUCAGCAGGGCAUCACUGAGAGAAAUGCC, the self-cleavage was determined as 0.13.
